The source of these data is patent US7101851 (dated 2006).

Bridges are numbered along the chain shown (N, C = ends). Where no end group is shown, it is not given here.

The target in the test is T1, alpha subunit of the human FcεRI receptor (IgE high affinity receptor), expressed on Chinese hamster ovary … (human, UniProt P12319 26-257).
T1 construct: whole, on cells; also called CHO FcεRI+ cells; FcεRIα
T1 sequence (looked up): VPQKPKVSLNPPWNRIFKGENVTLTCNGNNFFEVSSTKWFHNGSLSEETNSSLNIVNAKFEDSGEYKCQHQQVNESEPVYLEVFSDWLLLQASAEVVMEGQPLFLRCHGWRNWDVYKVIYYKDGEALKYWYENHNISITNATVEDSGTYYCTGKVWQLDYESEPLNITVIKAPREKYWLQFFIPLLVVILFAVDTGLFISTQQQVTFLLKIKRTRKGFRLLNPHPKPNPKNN
The test is described as follows: inhibition of 125I-IgE binding to CHO cells expressing human FcεRI alpha; competitor IgE. As for the experimental part:
To determine the ability of peptides to inhibit IgE binding to FcεRI, a cell-based binding assay was used with radiolabeled IgE. Chinese hamster ovary cells expressing the alpha subunit of the human FcεRI receptor were cultured overnight in Falcon 96 well microtiter plates at a concentration of 5 ×10^4 cells per well. The following day the cells were rinsed three times with PBS and then once with F12/DMEM. Peptide stocks were reconstituted in 100 mM Hepes buffered water, pH 7.2, at a concentration of 5 mg/mL. Working concentrations of the peptide were diluted in assay buffer (see below). 75 uL of a desired concentration of peptide was added to the top row of a separate 96 well microtiter plate and serially diluted 1:3 in 50 uL of the assay buffer (F12/DMEM, 1% BSA, 0.05% NaN_3 and 0.025 mM Hepes pH 7.2). Starting concentrations ranged from 50–500 uM. Next, 50 uL of the diluted peptide was transferred to the 96 microtiter well plate containing a monolayer of CHO FcεRI+ cells. […] Cells were […]

B1: IGE119 (peptide)
peptide: NGCPGWCYVGGKALCPDVCYV-NH2
modifications: disulfide 7-15, 3-19; N-terminus assumed
SMILES: CC(C)C[C@@H]1NC(=O)[C@H](C)NC(=O)[C@H](CCCCN)NC(=O)CNC(=O)CNC(=O)[C@H](C(C)C)NC(=O)[C@H](Cc2ccc(O)cc2)NC(=O)[C@@H]2CSSC[C@H](NC1=O)C(=O)N1CCC[C@H]1C(=O)N[C@@H](CC(=O)O)C(=O)N[C@@H](C(C)C)C(=O)N[C@H](C(=O)N[C@@H](Cc1ccc(O)cc1)C(=O)N[C@H](C(N)=O)C(C)C)CSSC[C@H](NC(=O)CNC(=O)[C@@H](N)CC(N)=O)C(=O)N1CCC[C@H]1C(=O)NCC(=O)N[C@@H](Cc1c[nH]c3ccccc13)C(=O)N2
One may read the IC50 as the point on the concentration scale where inhibition reaches its midpoint. A low value points to inhibition by little substance. B1 came in with an IC50 of 1400 nM.

B2: IGE037 (peptide)
peptide: ALCPAVCYV-NH2
modifications: disulfide 3-7 (inferred); also: synthesized as monomer, spontaneously formed a dimer
On to B2, for which the IC50 was found to be 251000 nM.

B3: IGE089 (peptide)
peptide: ALCPAVCYV-NH2
modifications: also: antiparallel disulfide-linked homodimer, interchain C3-C7' and C7-C3'
notes: also called antiparallel covalent dimer of IGE037
B3 came in with an IC50 of 64000 nM.
Molecule VKCPSLCYVGGKALCPDVCYV-NH2 (not fully specified (bridges); cysteine pairing not given here) [IGE123] displayed an IC50 of 180 nM. Against the preceding molecule, the IC50 is about 360-fold lower.
With VPCPELCYVGGKALCPDVCYV-NH2 (not fully specified (bridges); cysteine pairing not given here) [IGE124] the figure was 890 nM.

B4: IGE130 (peptide)
peptide: ALCPDVCYVGGKVQCPHFCYV-NH2
modifications: disulfide 7-15, 3-19; N-terminus assumed
SMILES: CC(C)C[C@H](NC(=O)[C@H](C)N)C(=O)N[C@H]1CSSC[C@@H](C(=O)N[C@@H](Cc2ccc(O)cc2)C(=O)N[C@H](C(N)=O)C(C)C)NC(=O)[C@H](Cc2ccccc2)NC(=O)[C@H](Cc2c[nH]cn2)NC(=O)[C@@H]2CCCN2C(=O)[C@@H]2CSSC[C@H](NC(=O)[C@H](C(C)C)NC(=O)[C@H](CC(=O)O)NC(=O)[C@@H]3CCCN3C1=O)C(=O)N[C@@H](Cc1ccc(O)cc1)C(=O)N[C@@H](C(C)C)C(=O)NCC(=O)NCC(=O)N[C@@H](CCCCN)C(=O)N[C@@H](C(C)C)C(=O)N[C@@H](CCC(N)=O)C(=O)N2
For the molecule B4, the concentration for half-maximal inhibition (IC50) turned out to be 250 nM.
With KSCPLWCYVGGKALCPDVCYV-NH2 (not fully specified (bridges); cysteine pairing not given here) [IGE128] the figure was 240 nM; with VQCPHFCYFGGAELCPDVCYV-NH2 (cysteine pairing not given here) [IGE135], 47 nM.
As to VQCPDFCYFGGAELCPDVCYV-NH2 (not fully specified (bridges); cysteine pairing not given here) [IGE191], the IC50 came out at 210 nM.
Consider VQCPHFCYFGGAELCPGVCYV-NH2 (cysteine pairing not given here) [IGE136], for which the half-maximal inhibitory concentration (IC50) was found to be 119 nM.
With VQCPHFCYVGGKVQCPHFCYV-NH2 (not fully specified (bridges); cysteine pairing not given here) [IGE131] the figure was 2300 nM.

B5: IGE083 (peptide)
peptide: ALCPAVCYVGGKALCPDVCYV-NH2
modifications: disulfide 7-15, 3-19; N-terminus assumed
SMILES: CC(C)C[C@H](NC(=O)[C@H](C)N)C(=O)N[C@H]1CSSC[C@@H](C(=O)N[C@@H](Cc2ccc(O)cc2)C(=O)N[C@H](C(N)=O)C(C)C)NC(=O)[C@H](C(C)C)NC(=O)[C@H](CC(=O)O)NC(=O)[C@@H]2CCCN2C(=O)[C@@H]2CSSC[C@H](NC(=O)[C@H](C(C)C)NC(=O)[C@H](C)NC(=O)[C@@H]3CCCN3C1=O)C(=O)N[C@@H](Cc1ccc(O)cc1)C(=O)N[C@@H](C(C)C)C(=O)NCC(=O)NCC(=O)N[C@@H](CCCCN)C(=O)N[C@@H](C)C(=O)N[C@@H](CC(C)C)C(=O)N2
On to B5, for which the half-inhibitory concentration (IC50) amounted to 1100 nM. Compared with the last molecule, the IC50 is about 2.1-fold lower.
Molecule VVCPNMCYVGGKALCPDVCYV-NH2 (not fully specified (bridges); cysteine pairing not given here) [IGE121] had a half-maximal inhibitory concentration (IC50) of 340 nM.

B6: IGE132 (peptide)
peptide: VQCPHFCYVGGHALCPDVCYVGR
modifications: not fully specified (bridges); cysteine pairing not given here
notes: produced as Z-domain fusion in E. coli and released with trypsin
In turn, B6 gave a concentration for half-maximal inhibition (IC50) of 80 nM.

B7: IGE145 (peptide)
peptide: VQCPDFCYVGGHALCPDVCYVGR
modifications: not fully specified; cysteine pairing not given here
notes: as for B6
As for B7, the IC50 turned out to be 117 nM.

B8: IGE142 (peptide)
peptide: VQCAHFCYVGGHALCPDVCYVGR
modifications: disulfide (positions not given here)
notes: as for B6
In turn, B8 had an IC50 of 1000 nM.
As for VTCPRWCYVGGKALCPDVCYV-NH2 (cysteine pairing not given here) [IGE126], the 50% inhibitory concentration (IC50) was determined as 380 nM.
To VQCPHFCYELDYELCPDVCYV-NH2 (not fully specified (bridges); cysteine pairing not given here) [IGE134] belongs 32 nM; to VQCPHFCYELDYELCPWVCYV-NH2 (not fully specified (bridges); cysteine pairing not given here) [IGE175], 57 nM; to VQCPHFCYELDYELCPWKCYT-NH2 (not fully specified (bridges); cysteine pairing not given here) [IGE174], 172 nM.
In turn, VQCPHFCYELDYELCPDKCYT-NH2 (not fully specified (bridges); cysteine pairing not given here) [IGE173] had an IC50 of 61 nM.
The molecule VQCPDFCYELDYELCPDVCYV-NH2 (not fully specified (bridges); cysteine pairing not given here) [IGE190] returned an IC50 of 58 nM.
As for IVCPRLCYVGGKALCPDVCYV-NH2 (not fully specified (bridges); cysteine pairing not given here) [IGE120], the IC50 turned out to be 290 nM.
To IVCARLCYVGGKALCPDVCYV-NH2 (not fully specified (bridges); cysteine pairing not given here) [IGE127] belongs 13000 nM; to IVCPRLCYELDYELCPDVCYV-NH2 (cysteine pairing not given here) [IGE141], 131 nM.
Molecule VQCPHFCYVGGKALCPDVCYV-NH2 (not fully specified (bridges); cysteine pairing not given here) [IGE122] had an IC50 of 170 nM.
To VQCPHFCYVGGKALCPDKCYV-NH2 (cysteine pairing not given here) [IGE147] belongs 158 nM; to VQCPHFCYVGGKALCPDVCDV-NH2 (not fully specified (bridges); cysteine pairing not given here) [IGE150], 1230 nM.
VQCPHFCYVGGKALCPDPCYV-NH2 (cysteine pairing not given here) [IGE149] yielded an IC50 of 166 nM.
On to VQCPHFCYVGGKALCPDKCYT-NH2 (cysteine pairing not given here) [IGE148], for which the IC50 amounted to 94 nM.
